Reference: the supplement of paper PMC10567573
± gives the standard deviation.

Assay: protein stability index of a GFP-peptide fusion (GPS, HEK-293T) (PSI 1-6); higher = more stable
Settings: c terminus: a fixed tail appended
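Also: 24-mer peptide tiles fused after GFP, lentivirally expressed, FACS-sorted into six equal bins by GFP/DsRed ratio, decoded by Illumina sequencing, PSI is the read-weighted mean bin number.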

Row | Sequence | protein stability index (treatment: DMSO) | protein stability index (treatment: MLN4924 1 uM, 8 h)
1 | RDCLVLNQGYLSEAGASLVDQKLE [PI4K2A] | 4.29 ± 0.28 | 4.54 ± 0.11
2 | SRKGELTPLPETGYWRVRLWNGDK [TRIM39] | 2.63 ± 0.057 | 2.58 ± 0.36
3 | IQFKKHEEEGIETQYFAELLMTSG [CNOT7] | 2.82 ± 0.21 | 2.82 ± 0.35
4 | LLTHRCLRDEHRCASKYGRDWERY [DHCR7] | 2.26 ± 0.27 | 2.38 ± 0.11
5 | QLEEGLKDTDLARVRRFQVVEVTK [M1AP] | 4.06 ± 0.15 | 4.04 ± 0.32
6 | HGEELRVSARSREGRGGRPGSTRP [HAGHL] | 4.92 ± 0.2 | 4.93 ± 0.16
7 | GTSDYDDVLSCEYYSPILDQWTPI [KLHL13] | 2.41 ± 0.33 | 2.34 ± 0.19
8 | PSCQETRDYAPPSRGYAYRDNGHS [RBMY1A1] | 4.18 ± 0.18 | 4.21 ± 0.21
9 | TQHKFICEQCGKCKCGECTAPRTL [SPRY1] | 4 ± 0.22 | 3.87 ± 0.18
10 | LDYSFGDHTSEAVRNLFGLDPSSG [PCDHGC5] | 3.55 ± 0.13 | 3.54 ± 0.38
11 | KLDQLDQDIENALSTSSSPSGTPT [DLC1] | 5.2 ± 0.19 | 5.35 ± 0.27
12 | LCGQAAGAASLPSELIVHIFSFLP [FBXO33] | 2.54 ± 0.72 | 2.29 ± 0.18
13 | YEWARDHRAHHKFSETHADPHNSR [SCD] | 3.96 ± 0.28 | 4.12 ± 0.18
14 | YSSQLSQVQSLITNVESQLAEIRS [KRT33B] | 3.49 ± 0.1 | 3.66 ± 0.2
15 | QPQALLVDGDQSKILISGLEPSTP [TNXB] | 4.73 ± 0.31 | 4.69 ± 0.23
16 | TARMEMLIEELYAFMPARSQDPKK [CBY2] | 2.66 ± 0.39 | 2.94 ± 0.27
17 | EEVSSTVHIETFTTRHGEVGSALH [C10orf62] | 4.43 ± 0.36 | 4.57 ± 0.19
18 | LRETKRKYESVLQLGRALTAHLYS [ARFIP2] | 2.3 ± 0.5 | 2.15 ± 0.32
19 | LEGYRDNAYKDLAWKHGNIHLSAP [PCMTD1] | 2.99 ± 0.35 | 2.94 ± 0.21
20 | FGIGSEILKNLSQVAMRCRCSSMH [SAT1] | 2.56 ± 0.58 | 2.45 ± 0.48
21 | NHQKDLFRRTDGRCLIWGRKPKVI [DHCR7] | 2.66 ± 0.27 | 2.74 ± 0.3
22 | PPPDVTQLTPPSHDLTDNIFPRLV [ANKRD17] | 4.04 ± 0.34 | 4.06 ± 0.16

Row | Sequence | protein stability index (treatment: DMSO) | protein stability index (treatment: MLN4924 1 uM, 8 h)
23 | DGIRGKVGHARGLHAWQINWPARQ [SPSB4] | 2.8 ± 0.19 | 2.67 ± 0.31
24 | LLDADWSINAGSWMWLSCSSFFQQ [CRY1] | 2.67 ± 1.1 | 2.57 ± 0.22
25 | AIFSAPAFPAAVSSMKKFCRPLLP [PSD2] | 2.58 ± 0.12 | 2.3 ± 0.28
26 | TASKAIIEKEYQPHVIVSTTGPNP [ADD1] | 4.47 ± 0.21 | 4.65 ± 0.16
27 | LTSLHHFMHSRNLYILGNFMQLKC [PNLIPRP1] | 2.89 ± 0.32 | 2.5 ± 0.35
28 | SKKTFQITKQGDGVDFLSWFLNAL [USP39] | 2.35 ± 0.16 | 2.29 ± 0.24
29 | LAEMKDDSDSEKQQQIHHIKNLYA [VPS39] | 4.16 ± 0.25 | 4.35 ± 0.44
30 | VFDNAIRAALISRRHLQFWKSHLR [RHOBTB2] | 2.23 ± 0.38 | 2.1 ± 0.3
31 | NIKIWLSLRSYLKRRGPQRSVDVV [PHTF1] | 2.43 ± 0.35 | 2.54 ± 0.36
32 | EEVDEDGSGTIDFEEFLVMMVRQM [TNNC2] | 3.52 ± 0.15 | 3.79 ± 0.44
33 | VKGLFKSENCPKVISCEFAHNSNW [LARP4] | 2.17 ± 0.24 | 2.4 ± 0.24
34 | EIPWTSLTRKGLVRVVFFPLFSNW [PHTF1] | 3.09 ± 0.89 | 2.84 ± 0.23
35 | VNRRISIVGFGLYGSIHGPTDYQV [BTBD1] | 2.65 ± 0.77 | 2.45 ± 1.1
36 | ETNRLGRLINHSKCGNCQTKLHDI [KMT5A] | 2.57 ± 0.36 | 2.75 ± 0.23
37 | GCILQWKKIYCRICMAQIAYSGNT [ZBED1] | 2.23 ± 0.81 | 2.28 ± 0.76
38 | FMYNLVQFLGFSWIFVNLTVRFCI [HACD3] | 3.58 ± 1.3 | 2.82 ± 0.15
39 | HTEERPYECNHCGKGFRHSSSLAQ [ZNF8] | 3.58 ± 0.3 | 3.79 ± 0.27
40 | FGPGQTLLSSVHVLDLEARGYIKP [ALKBH7] | 2.43 ± 0.24 | 2.67 ± 0.3
41 | MSHHQEELVPKQPQKRKPQEQLLE [SLC2A12] | 5.25 ± 0.14 | 5.34 ± 0.15
42 | KQTGIVFGSFLLLLFSLTQFSVVS [RTN1] | 3.08 ± 0.46 | 3.48 ± 0.38
43 | VYKSLLLLAYLIRNGSERVVTSAR [CLINT1] | 2.57 ± 0.51 | 2.59 ± 0.39
44 | HGDDLKNTKNEISELTRLIQRIRS [KRT71] | 2.77 ± 0.18 | 3.11 ± 0.3
